Measured values published in PMC9181795, “Ibuprofen Favors Binding of Amyloid-β Peptide to Its Depot, Serum Albumin” (International Journal of Molecular Sciences, 2022).
“Also recorded” adds a separate entry of the source. Each block holds one molecule with its values, some of them ahead of it.

What was measured:
HSA–Aβ interaction = tested on: HSA–Aβ interaction; parameters: method as in 5 sources, ref [12] = [12]; PMID 30685090; doi:10.1016/j.bbrc.2019.01.081; 12. Litus E.A. Kazakov A.S. Sokolov A.S. Nemashkalova E.L. Galushko E.I. Dzhus U.F. Marchenkov V.V. Galzitskaya O.V. Permyakov E.A. Permyakov S.E. The binding of monomeric amyloid beta peptide to seru ||| ref [12],[13] = [12]; PMID 30685090; doi:10.1016/j.bbrc.2019.01.081; 12. Litus E.A. Kazakov A.S. Sokolov A.S. Nemashkalova E.L. Galushko E.I. Dzhus U.F. Marchenkov V.V. Galzitskaya O.V. Permyakov E.A. Permyakov S.E. The binding of monomeric amyloid beta peptide to seru || [13]; PMID 34072751; doi:10.3390/ijms22115896; 13. Litus E.A. Kazakov A.S. Deryusheva E.I. Nemashkalova E.L. Shevelyova M.P. Nazipova A.A. Permyakova M.E. Raznikova E.V. Uversky V.N. Permyakov S.E. Serotonin promotes serum albumin interaction with ||| ref [7] = [7]; PMID 10347147; doi:10.1074/jbc.274.23.15990; 7. Bohrmann B. Tjernberg L. Kuner P. Poli S. Levet-Trafit B. Naslund J. Richards G. Huber W. Dobeli H. Nordstedt C. Endogenous proteins controlling amyloid beta-peptide polymerization. Possible implic ||| ref [14] = [14]; PMID 29409811; doi:10.1016/j.jmb.2018.01.008; 14. Bode D.C. Stanyon H.F. Hirani T. Baker M.D. Nield J. Viles J.H. Serum albumin’s protective inhibition of amyloid-β fiber formation is suppressed by cholesterol, fatty acids and warfarin J. Mol. Bi ||| ref [13] = [13]; PMID 34072751; doi:10.3390/ijms22115896; 13. Litus E.A. Kazakov A.S. Deryusheva E.I. Nemashkalova E.L. Shevelyova M.P. Nazipova A.A. Permyakova M.E. Raznikova E.V. Uversky V.N. Permyakov S.E. Serotonin promotes serum albumin interaction with; conditions: cited from earlier work; for effect on HSA affinity toward monomeric Aβ: ref [12],[13]; for effect of HSA ligand on HSA–Aβ interaction: ref [14]
[1] = target: A21G mutant of amyloid-β peptide 1-40, Flemish variant of Aβ40 (human); assay: SPR; as a1, but with 100 uM ibuprofen (IBU) in the running buffer: Aβ immobilised by amine coupling and washed to monomer; analyte 0.5-8 uM HSA; 25 °C; 20 mM Tris-HCl, 140 mM NaCl, […] KCl, 1 mM MgCl2, […] CaCl2, pH 7.4; heterogeneous ligand model (two ligand populations L1 and L2)
[2] = target: A21G mutant of amyloid-β peptide 1-40, Flemish variant of Aβ40 (human); assay: SPR; Aβ immobilised by amine coupling on a ProteOn GLH chip (6000-9000 RU), non-covalently bound Aβ washed off (2% SDS, 100 mM HCl, 20 mM EDTA pH 8.0 with 1% SDS) to leave monomeric Aβ; analyte 0.5-8 uM HSA; no IBU; 25 °C; 20 mM Tris-HCl, 140 mM NaCl, […] KCl, 1 mM MgCl2, […] CaCl2, pH 7.4; heterogeneous ligand model (two ligand populations L1 and L2)

Molecule: CCCCC/C=C\C/C=C\C/C=C\C/C=C\CCCC(=O)O [arachidonic acid, arachidonic]
- effect on HSA affinity toward monomeric Aβ (HSA–Aβ interaction): enhance HSA affinity toward monomeric Aβ

Molecule: CC(C)CCC[C@@H](C)[C@H]1CC[C@H]2[C@@H]3CC=C4C[C@@H](O)CC[C@]4(C)[C@H]3CC[C@]12C [cholesterol]
- effect of HSA ligand on HSA–Aβ interaction (HSA–Aβ interaction): exert the opposite effect; also recorded: act in the opposite direction

Molecule: CCCCC/C=C\C/C=C\CCCCCCCC(=O)O [linoleic acid]
- effect on HSA affinity toward monomeric Aβ (HSA–Aβ interaction): enhance HSA affinity toward monomeric Aβ

Molecule: NCCc1c[nH]c2ccc(O)cc12 [serotonin]
- effect on HSA affinity toward monomeric Aβ (HSA–Aβ interaction): enhance HSA affinity toward monomeric Aβ

Molecule: N[C@@H](Cc1c[nH]c2ccccc12)C(=O)O [tryptophan]
- effect on the HSA–Aβ40/Aβ42 equilibrium (HSA–Aβ interaction; ref [13]): does not affect the HSA–Aβ40/Aβ42 equilibrium

Molecule: CC(=O)CC(c1ccccc1)c1c(O)c2ccccc2oc1=O (stereo not shown) [warfarin]
- effect of HSA ligand on HSA–Aβ interaction (HSA–Aβ interaction): exert the opposite effect; also recorded: act in the opposite direction

- Kd1 (ligand population L1) [1]: 8.2 pM
- ka1 (ligand population L1) [1]: 25000 M⁻¹ s⁻¹
- kd1 (ligand population L1) [1]: 2e-07 s⁻¹
- kd2 (ligand population L2) [1]: 1.03e-06 s⁻¹
- Kd2 (ligand population L2) [2]: 670 pM
- ka1 (ligand population L1) [2]: 30000 M⁻¹ s⁻¹
- kd2 (ligand population L2) [2]: 1.8e-06 s⁻¹
Molecule: human serum albumin (from UniProt P02768 25-609) (natural protein)
